This passage reports stoichiometry N results from PMC2592702.

The test has as its target recombinant mouse PrP, amino acids 23–231 (rmPrP_(23-231)) (mouse). The test is described as follows: ELISA.

The term stoichiometry N denotes the number of molecules, sites or subunits per partner or assembly.

As to POM2 monoclonal antibody (IgG), the stoichiometry N is > 2.
